The subject of one data set is B16F10 tumor. The experiment in a line: B16F10 subcutaneous tumor model in wild type and PAI-1 deficient mice. Type of data set: in vivo, mouse. The method, then: Homozygous PAI-1 deficient mice (PAI-1^−/−) and the corresponding WT mice (PAI^+/+) from either sex with a mixed genetic background 87% C57BL/6 and 13% 129 strain were used throughout this study. The animal experiment protocol used was approved by the Institutional Ethics Committee of the University of Liege.
Subconfluent B16-F10 cells were trypsinized, washed, and resuspended in PBS. Cell suspension (10^5 cells in 50 μl PBS) was injected subcutaneously into the right flank of mice experiments were performed on seven mice in each group. 18 to 20 days after tumor cells injection, the mice were killed and their tumors harvested. Tumor growth was assessed by measuring the length and width of each tumor every 1 to 2 days and calculating tumor volume by means of the formula: length×width^2×0.5.
16K-Ad is a defective recombinant E1-E3-deleted adenovirus vector encoding a secreted polypeptide consisting of the first 139 amino acids of PRL. This adenovirus vector was constructed as previously described with the help of the Adeno-X expression system (BD Biosciences, Erembodegem, Belgium). Null-Ad is a control adenovirus carrying an empty expression cassette. A recombinant adenovirus vector bearing WT human PAI-1 (AdCMVPAI-1) and control adenovirus (AddRR5) were generated as previously described.
The 16K hPRL adenovirus and their corresponding control were injected into mouse tail vein 2 days before the subcutaneous injection of tumor cells. A second injection was done 8 days after the first one. The wt PAI-1 adenovirus and their control were injected one day after the 16K hPRL adenovirus injections. 10^9 pfu of adenoviruses were used for each tail vein injection.
HUVECs were grown to 70% confluence on gelatin-coated 35-mm dishes. After incubation for 3 h with 14K GH (160 ng/ml) or 16K PRL (160 ng/ml), the cells were washed with PBS at room temperature and incubated for 1 h at room temperature under non-permeabilization conditions with mouse anti uPA (American Diagnostica INC) diluted 1/100, rabbit anti prolactin (Dako) diluted 1/100, or rabbit anti human GH (home made) diluted 1/100. Endothelial cells were washed in PBS and incubated with FITC horse anti mouse (Vector Laboratory) and Texas red goat anti rabbit antibodies (Jackson Laboratory). For PAI-1 staining, the cells were incubated simultaneously with Histag PAI-1 at 800 uM and 16K PRL or 14K GH. […] Cryostat tumor sections (5 μm thick) were fixed in acetone at −20° C. and in 100% methanol at 4° C. and then incubated with the primary antibodies, rat monoclonal anti PECAM-1, and rabbit polyclonal anti-prolactin (DAKO) for 1 hour at room temperature. The slides were washed and incubated with a Cy3 goat anti-rat and an FITC goat anti-rabbit antibody. After 3 washes in PBS for 10 min, the slides were covered with coverslips in mounting medium (Victor Laboratories Inc.) and analyzed by fluorescence microscopy.

Data set [1] concerns the target T1, PAI-1 (Homo sapiens, UniProt P05121).
T1 construct: gift of Pr; P. Declerck
Description: In vitro clot lysis assay in pooled normal human plasma with added PAI-1 and tPA. Type of data set: biochemical. Conditions: 3 μM protein, recombinant PAI-1, tPA. The method, then: Clot lysis was performed as follows: pooled normal plasma were used in citrated tube. Recombinant wild type PAI-1 was incubated in the presence or in the absence of 16K hPRL (3 μM), 14K hGH (3 μM) or different peptides (25 μM) for 10 min at 37° C., before to be added to diluted plasma in tris tween buffer (75 μl of plasma in 200 μl of 10 mM TRIS pH 7.5, 0.01% tween 20), followed by a second incubation for 10 min at 37° C. tPA was added to each tube at the end to reach a final volume of […]. Aliquots from each tube (80 μl) were added in duplicate to 96 wells, each containing 20 μl CaCl2 to give the following final concentration per well of 10 mM. Clot formation and dissolution were monitored at RT measuring turbidity at 405 nm in 5 min intervals.

The test system of the next data set is endothelial cells. The experiment in a line: Endothelial cell proliferation (BrdU incorporation). The class given is cell-based, bovine. Conditions: for anti-proliferative function: down-regulation of PAI-1 expression by si-RNA; for anti-proliferation effect: recombinant wild type PAI-1 added to culture medium. The method, then:
The cells were plated in 96-well culture plates at a density of 2,500 cells per well in 10% FCS/DMEM and allowed to adhere for 24 h. Then complete medium was replaced with SFM for 24 h. […] Proliferation was analysed 24 h later by measuring BrdU incorporation by means of the Cell Proliferation ELISA, BrdU (Colorimetric) (Roche, Clinical Laboratories, Indianapolis, Ind.). […] ID NO: 35); PAI-1 […] ID NO: 36).
In general terms: Incorporation of labelled thymidine or its analogues reports DNA synthesis.

The target of data set [2] is T1, PAI-1. The experiment in a line: Inhibition of PAI-1 anti-proteolytic activity, uPA/plasminogen chromogenic (colorimetric) assay. Type of data set: biochemical. Conditions: uPA, bovine plasminogen, PAI-1, absorbance 405 nm. The method, then:
The main physiological function of PAI-1 is to inhibit uPA and tPA proteolytic activity. […] A chromogenic substrate for plasmin (Spectrozyme PL: 0.5 mM. American Diagnostica INC) in PBS was added to the mixture in 96-well microtitration plates and kept at room temperature. The release of free p-nitro-aniline from the chromogenic substrate was measured spectrophotometrically. The activity of plasmin was determined as the absorbance at 405 nm.

For another data set, the target named is T2, PAI-1/tPA complex (Homo sapiens, UniProt P05121).
T2 construct: purchased Calbiochem (tPA); PAI-1 a gift of Pr; P. Declerck
T2 sequence (P05121 24-402, one chain of several): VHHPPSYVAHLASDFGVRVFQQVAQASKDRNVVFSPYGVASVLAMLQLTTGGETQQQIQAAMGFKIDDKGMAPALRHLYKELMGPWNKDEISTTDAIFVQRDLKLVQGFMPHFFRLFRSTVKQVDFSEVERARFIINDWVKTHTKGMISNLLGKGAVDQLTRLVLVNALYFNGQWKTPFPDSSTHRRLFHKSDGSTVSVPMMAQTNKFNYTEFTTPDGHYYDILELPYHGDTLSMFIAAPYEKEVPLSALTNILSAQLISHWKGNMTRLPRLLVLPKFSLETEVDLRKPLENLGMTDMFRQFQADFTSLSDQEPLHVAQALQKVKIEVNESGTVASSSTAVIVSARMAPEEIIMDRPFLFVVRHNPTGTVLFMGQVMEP
The experiment in a line: Complex formation between PAI-1 and tPA by SDS-PAGE (silver staining). The class given is biochemical. Conditions: PAI-1 pre-incubated 10 min at 37° C. with 16K hPRL (5 μg) or 14K hGH (4 μg), then tPA. The method, then: tPA/PAI-1 complex was formed 10 min after their incubation at 37° C. Pre-incubation of PAI-1 (4 μg) with 16K hPRL (5 μg) or 14K hGH (4 μg) during 10 min at 37° C., followed by a second 10 min incubation with tPA (2 μg) was stopped by the addition of sample buffer containing 5% β-Mercaptoethanol. Samples are heated at 95° C. before being analysed by SDS-PAGE. Silver staining was performed on the gel to visualize protein bands and complexes.

For the next data set, the target named is T3, uPA (Homo sapiens, UniProt P00749+P05121).
T3 construct: endogenous in cells; host or cells: HUVEC
Description: In situ proximity ligation assay (PLA) on HUVECs. Type of data set: cell-based. The method, then:
HUVECs were grown on gelatin-coated glass coverslips. After incubation for 2 h with 14K GH (50 nM) or 16K PRL (50 nM), the cells were washed with PBS at room temperature and fixed with 4% paraformaldehyde for 15 min, blocked, permeabilized and incubated overnight with mouse anti uPA (American Diagnostica Inc. Greenwich, Conn.) diluted 1/100 and rabbit anti prolactin (Dako) diluted 1/100, or rabbit anti human GH (home made) diluted 1/100. PLA was performed according to the manufacturer's instructions using the Duolink Detection Kit 563 (Olink Bioscience) with anti-mouse MINUS and anti-rabbit PLUS PLA probes. DAPI nucleus stain was added to the mounting media and the slides were analyzed by fluorescence microscopy.

The values below come from patent publication US20130035289A1, “PHARMACEUTICAL COMPOSITION FOR TREATMENT OF THROMBOSIS-RELATED DISEASES COMPRISING A FRAGMENT OF PROLACTIN (PRL)-GROWTH HORMONE (GH)-PLACENTAL LACTOGEN (PL)-FAMILY PROTEIN” (UNIVERSITE DE LIEGE, priority 2010, published 2013).

T1 sequence (P05121 24-402): as the sequence (P05121 24-402, one chain of several) above

B1: 16K hPRL: 16K N-terminal human prolactin fragment, recombinant, produced and purified from E. coli (protein)
chain: LPICPGGAARCQVTLRDLFDRAVVLSHYIHNLSSEMFSEFDKRYTHGRGFITKAINSCHTSSLATPEDKEQAQQMNQKDFLSLIVSILRSWNEPLYHLVTEVRGMQEAPEAILSKAVEIEEQTKRLLEGMELIVSQVHP
With B1, the “16K PRL localization (immunostaining)” value with B16F10 tumor (PAI-1-deficient mice) is on record as “only in the bloodstream”; in the data set on B16F10 tumor (wild-type mice and PAI-1−/− mice injected with PAI-1-Ad), “observed in tumor tissues”. Besides, the “plasma level of 16K PRL at the end of the experiment” value in the data set on B16F10 tumor (PAI-1 deficient mice) is given as “remained detectable”; in the data set on B16F10 tumor (mice where human PAI-1 expression was restored) it was “considerably dropped off”. In addition, in the data set on B16F10 tumor (PAI-1 deficient mice with systemic expression of human PAI-1 (adenoviral vector)), the anti-tumoral effect result was “restored”. Further, the tumor growth result in the data set with B16F10 tumor (PAI-1 deficient mice, 16K PRL expressed via 16K-Ad) was “did not show a tumor growth reduction”. Further, the tumor blood vessels result with B16F10 tumor (PAI-1−/− mice) is “appeared normal”; in the data set with B16F10 tumor (wild-type mice, versus untreated controls), “smaller, collapsed blood vessels”. Further, in the data set with PAI-1 [1], the “clot lysis in human plasmas” value is “increased significantly”. For the same molecule, the anti-proliferative function entry with endothelial cells is listed as “reduced significantly”. Also, the anti-proliferation effect result with endothelial cells is “reduced significantly”. Also, in the data set with PAI-1 [2], the “inhibition of PAI-1 function to inhibit uPA and tPA proteolytic activity” value was “significantly inhibited”. Further, the PAI-1/tPA complex formation entry with PAI-1/tPA complex is on record as “partially inhibit”. Further, in the data set with uPA, the “distance between uPA and 16K PRL” value is listed as “less than 40 nm”.

B2: 14K hGH: 14K N-terminal fragment of human growth hormone, recombinant, produced and purified from E. coli (protein)
chain: MFPTIPLSRLFDNAMLRAHRLHQLAFDTYQEFEEAYIPKEQKYSFLQNPQTSLSFSESIPTPSNREETQQKSNLELLRISLLLIQSWLEPVQFLRSVFANSLVYGASDSNVYDLLKDLEEGIQTLMGRLEDGSP
B2: the “clot lysis in human plasmas” value in the data set with PAI-1 [1] is on record as “increased significantly”. In the data set with endothelial cells, the anti-proliferative function entry is recorded as “reduced significantly” and the anti-proliferation effect result was “reduced significantly”. The “inhibition of PAI-1 function to inhibit uPA and tPA proteolytic activity” value with PAI-1 [2] is given as “significantly inhibited”. Moreover, the PAI-1/tPA complex formation entry with PAI-1/tPA complex is recorded as “completely abolished”.
